B1: Zinc finger homeobox protein 4, residues 2562 to 2617; numbered along this chain, Q86UP3 (parent)
chain: RLRTTITPEQLEILYEKYLLDSNPTRKMLDHIAREVGLKKRVVQVWFQNTRARERK

± gives the uncertainty stated by the source.

The variants in this data set derive from B1. Kind of data set: abundance fitness (aPCA) (normalised: wild type 0, dead -1); higher = more abundant; growth selection in yeast, the domain comes from the species named. The note with it: Homo sapiens.
Turning to RLRTTITPEQLEILYEKYLLDSNPTRKHLDHIAREVGLKKRVVQVWFQNTRARERK, the abundance fitness was -0.305 ± 0.096.

As to RLRTTITPEQSEILYEKYLLDSNPTRKMLDHIAREVGLKKRVVQVWFQNTRARERK, the abundance fitness is -0.082 ± 0.074.

Regarding RLRTTITPEQDEILYEKYLLDSNPTRKMLDHIAREVGLKKRVVQVWFQNTRARERK, the abundance fitness turned out to be 0.108 ± 0.064.

As to RLRTTITPEQLEILYEKYLLDSNPTRKMLDHIAREVGLKHRVVQVWFQNTRARERK, the abundance fitness was -0.218 ± 0.23.

For the variant RLRTTITPEQLEILYEKYLLDSNPTRKMLDHIAREVGLKRRVVQVWFQNTRARERK, the abundance fitness worked out at 0.057 ± 0.086.

Consider RLRTTITPEQLEILYEKYLLDSNPTRKMLDHIAREVGLKDRVVQVWFQNTRARERK, for which the abundance fitness is -0.097 ± 0.19.

Turning to RLRKTITPEQLEILYEKYLLDSNPTRKMLDHIAREVGLKKRVVQVWFQNTRARERK, the abundance fitness was -0.408 ± 0.12.

In the case of RLRRTITPEQLEILYEKYLLDSNPTRKMLDHIAREVGLKKRVVQVWFQNTRARERK, the abundance fitness was -0.63 ± 0.075.

For the variant RLRTTITPEQLEILYEKYLLDSNPTRKMLDHRAREVGLKKRVVQVWFQNTRARERK, the abundance fitness was -1.08 ± 0.12.

With RLRTTITPEQLEILYEKYLLDSNPTRKMLGHIAREVGLKKRVVQVWFQNTRARERK, the abundance fitness was -0.052 ± 0.062.

For the variant RLRTTITPEQLEILYEKYLLDSNPTRKMLEHIAREVGLKKRVVQVWFQNTRARERK, the abundance fitness is -0.088 ± 0.064.

Consider RLRTTITPEQLEILYEKYLLDSNPTRKMLRHIAREVGLKKRVVQVWFQNTRARERK, for which the abundance fitness was -0.144 ± 0.078.

On to RLRTTCTPEQLEILYEKYLLDSNPTRKMLDHIAREVGLKKRVVQVWFQNTRARERK, for which the abundance fitness was -0.565 ± 0.1.

In the case of RLRTTGTPEQLEILYEKYLLDSNPTRKMLDHIAREVGLKKRVVQVWFQNTRARERK, the abundance fitness is -0.264 ± 0.049.

As for RLRTTITPEQLEILYEKYLLDSNPTRKMLDHIAREVGQKKRVVQVWFQNTRARERK, the abundance fitness was -0.755 ± 0.13.

Regarding RLRTTITPEQLEISYEKYLLDSNPTRKMLDHIAREVGLKKRVVQVWFQNTRARERK, the abundance fitness is -0.998 ± 0.17.

For RLRTTITPEQLEILYEKYLLDSNPTRKMLDHIAREVGLKKRVVQVWFQNTRARESK, the abundance fitness worked out at 0.09 ± 0.052.

With RLRTTITPEQLEILYEKYLLDSNPTRKMLDHIAREVGLKKRVVQVWFQNTRAREFK, the abundance fitness is -0.23 ± 0.15.

Regarding RLRTTITPEQLEILYEKYLLDSNPTRKMLDHIAREVGLKKRVVQVWFQCTRARERK, the abundance fitness is -0.282 ± 0.067.

In the case of RLRTTITPEQLEILYEKYLLDSNPTRKMLDHIAREVGLKKRVVQVWFQLTRARERK, the abundance fitness is -0.25 ± 0.062.

As to RLDTTITPEQLEILYEKYLLDSNPTRKMLDHIAREVGLKKRVVQVWFQNTRARERK, the abundance fitness was 0.68 ± 0.12.

As to RLRTTITPEQLEILYEKYLLMSNPTRKMLDHIAREVGLKKRVVQVWFQNTRARERK, the abundance fitness was -0.673 ± 0.21.

On to RLRTTITPEQLEILYEKYLLKSNPTRKMLDHIAREVGLKKRVVQVWFQNTRARERK, for which the abundance fitness is -0.727 ± 0.097.

RLRTTITPEQLEILYEKYLLDSNPTRKMLDCIAREVGLKKRVVQVWFQNTRARERK: the abundance fitness worked out at 0.052 ± 0.23.

For the variant RLRTTITPEQLEILYEKYLLDSNPTRKMLDDIAREVGLKKRVVQVWFQNTRARERK, the abundance fitness came to 0.05 ± 0.1.

Regarding RLRTTITPEQLEILYEKYLLDSNPTRKMLDNIAREVGLKKRVVQVWFQNTRARERK, the abundance fitness is -0.335 ± 0.25.

As to RLRTTITPEQLEILYEKYLLDSNPTRKMLDSIAREVGLKKRVVQVWFQNTRARERK, the abundance fitness came to 0.233 ± 0.086.

On to RLRTTITPEQLEILYEKYLLDSNPTRKMLDRIAREVGLKKRVVQVWFQNTRARERK, for which the abundance fitness was -0.129 ± 0.071.

Regarding RLRTTITPEQLEILYEKYLLDSNPTRKMLDHIAREVGLKKRVVQPWFQNTRARERK, the abundance fitness is -0.754 ± 0.2.

With RLRTTITPEQLQILYEKYLLDSNPTRKMLDHIAREVGLKKRVVQVWFQNTRARERK, the abundance fitness is 0.033 ± 0.085.

Turning to RLRTTITPEQLRILYEKYLLDSNPTRKMLDHIAREVGLKKRVVQVWFQNTRARERK, the abundance fitness was found to be 0.007 ± 0.047.

For RLRTTITPEQLYILYEKYLLDSNPTRKMLDHIAREVGLKKRVVQVWFQNTRARERK, the abundance fitness is -0.435 ± 0.18.

Regarding RLRTTITPEQLEILYEKYLLDSNPTRKMLDHIAREVGLKKRVVQVWIQNTRARERK, the abundance fitness was -0.765 ± 0.2.

RLRTTITPEQLEILYEKYLLDSNPTRKMLDHIAREVGLKKAVVQVWFQNTRARERK: the abundance fitness came to 0.257 ± 0.062.

As for RLRTTITPEQLEILYEKYLLDSNPTRKMLDHIAREVGLKKDVVQVWFQNTRARERK, the abundance fitness came to 0.001 ± 0.19.

Turning to RLRTTITPEQLEILYEKYLLDSNPTRKMLDHIAREVGLKKTVVQVWFQNTRARERK, the abundance fitness stood at 0.213 ± 0.088.

As for RLRTTITPEQLEILYEKYCLDSNPTRKMLDHIAREVGLKKRVVQVWFQNTRARERK, the abundance fitness is -0.084 ± 0.1.

On to RLRTTITPEQLEILYEKYELDSNPTRKMLDHIAREVGLKKRVVQVWFQNTRARERK, for which the abundance fitness was -0.136 ± 0.11.

With RLRTTITPEQLEILYEKYWLDSNPTRKMLDHIAREVGLKKRVVQVWFQNTRARERK, the abundance fitness was -0.229 ± 0.085.

Consider RLRTTITPEQLEILYEKCLLDSNPTRKMLDHIAREVGLKKRVVQVWFQNTRARERK, for which the abundance fitness is -0.817 ± 0.077.

RLRTTITPEQLEILYEKYLLDSNPTRKMLDHIAREVYLKKRVVQVWFQNTRARERK: the abundance fitness is -0.962 ± 0.24.

For RLRTTIPPEQLEILYEKYLLDSNPTRKMLDHIAREVGLKKRVVQVWFQNTRARERK, the abundance fitness is -0.165 ± 0.2.

As to RLRTTITPEQLEFLYEKYLLDSNPTRKMLDHIAREVGLKKRVVQVWFQNTRARERK, the abundance fitness is -0.084 ± 0.14.

Consider RLRTTITPEQLEMLYEKYLLDSNPTRKMLDHIAREVGLKKRVVQVWFQNTRARERK, for which the abundance fitness is -0.088 ± 0.12.

As to RLRTTITPEQLEHLYEKYLLDSNPTRKMLDHIAREVGLKKRVVQVWFQNTRARERK, the abundance fitness was -0.588 ± 0.31.

As for RLRTTITPENLEILYEKYLLDSNPTRKMLDHIAREVGLKKRVVQVWFQNTRARERK, the abundance fitness is -0.651 ± 0.35.

In the case of RLRTTITPEQLEILYEKYLLDSHPTRKMLDHIAREVGLKKRVVQVWFQNTRARERK, the abundance fitness is -0.302 ± 0.27.

Values taken from the Human Domainome abundance scans (Beltran et al. 2025).
